Experimental findings from the nanobody polyreactivity screen of Harvey et al. (2022) are described below.

This series can be described thus: yeast display, Sf9 membrane polyspecificity reagent, FACS + sequencing; frameworks hold sequencing errors. The gist of the method: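 Synthetic nanobody libraries on Saccharomyces cerevisiae BJ5465 were galactose-induced for 36–48 hours, stained 1 hour at 4 °C with 10% biotinylated, detergent-solubilized Sf9 membrane reagent and enriched on streptavidin microbeads. FACS then separated cells into low and high (top ~1%) gates by anti-HA (expression) and streptavidin (reagent binding) fluorescence. Genes were colony-PCR amplified, MiSeq 2 × 250 sequenced and CDR-length filtered. A clone's polyreactivity label is that of its gate of origin.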
As for “QVQLVESAGGLVQAGGSLRLSCAASGLTFSIYALGWYRQAAGKERELVAAITGRGGRTYYADSVKGRFPISRDNAKNTVYLQMNTLKPDDTAVYYCAARYRGTDFDYWGQGTQVTVSS”, the “polyreactivity (PSR sort gate)” value is “high polyreactivity”.
The result for “QVQLVESAGGLVQAGGSLRLSCAASGLTFVRYGMGWYRQAPGKERELVAAITSDDSTYYADSVKGSFTISRDNAQNTVYLQMNSLNPEDTAVYYCAARYTLYDTGESSRTYTGFIYWGLGTQVTVSS” reads “low polyreactivity”; that for “QVQLVESAGGLVQAGGSLRLSCAASGNFGYNAIAWNRQAPGKETELVAAITSSGTSTYYADSVKGRLTISRDNAKNTVYLQMNSLKPEDTAVYYCAALPSGTWTGFGYWGQGTQVTVSS”, “low polyreactivity”; that for “QVQLVESAGGLVQAGGSLRLSCAASGRIFNSNAMGWYRQAPGKERELVASITSRGDSTFYADSVKGRFTISRDTAKNTVYLQMNSLKPEDTAVYYCAANGLYYRTPPVYSYDYWGQGTQVTVSS”, “low polyreactivity”.
The result for “QVQLVESAGGLVQAGGSLRLSCAASGRIFPYNVIGWYRQAPGKERELVAAISSGGTTDYADSVKGRFTISRDNAKNTVYLQMNSLKPEDTAVYYCAATYVYWTWGYDYWGQGTQVTVSS” reads “low polyreactivity”; that for “QVQLVESAGGLVQAGGSLRLSCAASGRIYGIYAMGWYRQAPGKERELVASITDGTITNYADSVKGRFTISRDNAKNTVYLQKNSLKPEDTAVYYCAAGTQAHAYVVRPIEMDYWGQGTQVTVSS”, “low polyreactivity”.
Regarding “QVQLVESAGGLVQAGGSLRLSCAASGRNLYQYAMGWYRQAPGKERELVAAITWNGGSTYYADSVKGRFTISRDNAKNTVYLQINSLKPEDTAVYYCAADSVRPWYAYKAHDYWGQGTQVTVSS”, the “polyreactivity (PSR sort gate)” value is reported as “low polyreactivity”.
With “QVQLVESAGGLVQAGGSLRLSCAASGRTFCGNAMGWYRQAPGKERELVAAITSGGSTYYADSVKGRFTISRDNAKNTVYLQMNSLKPEDTAVYYCATRRIYKWYRYYYWGQGTQVTVSS”, the “polyreactivity (PSR sort gate)” value was “high polyreactivity”.
On to “QVQLVESAGGLVQAGGSLRLSCAASGRTFIQYAMGWYRQAPGKERELVAVIRWSGGRTYYADTVKGRFTISRDNAKNTVYLQMNSLKPEDTAVYYCAKRSGSTFDWGQGTQVTVSS”, for which the “polyreactivity (PSR sort gate)” value is “high polyreactivity”.
With “QVQLVESAGGLVQAGGSLRLSCAASGRTFVGNAMGWYRQAPGTERELVADITWSGDITYYADSVKGRFTISRDNAKNTVYLQMNSLKPDDTAVYYCAADYHRRRTDYDYWGQGTQVTESS”, the “polyreactivity (PSR sort gate)” value was “low polyreactivity”.
The result for “QVQLVESAGGLVQAGGSLRLSCAASGRTLYRYAMGWYSQAPGKERELVAAIRWSGGSTYYADSVKGRFTISRDNAKNTVYLQMNSLKPEDTAVYYCNAGRSWRRTHYDYWGQGTQVTVSS” reads “high polyreactivity”; that for “QVQLVESAGGLVQAGGSLRLSCAASGRTSDGYAMGWSRQAPGKERELVAGITEGGGDTYYADSVKGRFTISRDNAKNTVYLQMNSLKTEDTAVYYCAKDLRRYLSWWYRYPYDYWGQGTQVTVSS”, “low polyreactivity”; that for “QVQLVESAGGLVQAGGSLRLSCAASGRTSVIYAMGWYRQAPGKERELVASIRRGGSTSYADSVKGRFTISRDNAKNTVYLQMNSLKPEDTAVYYCARETLGGTYLGDYWGQGTQVTVSS”, “high polyreactivity”.
Regarding “QVQLVESAGGLVQAGGSLRLSCAASGSILTSYAMGWYRQAPGKERELVAAINGSGGSTFYADSVKGRFTISRDNAKNTVYLQMNSLKPEDTAVYYCNTGGPRGTTYDYWGQGTQVTVSS”, the “polyreactivity (PSR sort gate)” value is “low polyreactivity”.
As for “QVQLVESAGGLVQAGGSLRLSCAASGSLFSLYAMGWYRQAPGKERELVAAITQSGGTKFYADSVKGRFTISRDNAKNTVYLQMNRLKPEDTAVYYCAAEWYRCYVPLGVAGEYDYWGQGTQVTVSS”, the “polyreactivity (PSR sort gate)” value is recorded as “low polyreactivity”.
As for “QVQLVESAGGLVQAGGSLRLSCAASGSTFGLNAMGRYRQAPGKERELVAAITRSGATTYYADSVKGRFTISRDNAKNTVYLKMNSLKPEDTAVYYCNKVYRPYTKRYYWGQGTQVTVSS”, the entry is “high polyreactivity”.
The result for “QVQLVESAGGLVQAGGSLRLSCAASGSTFTYKGMGWYRQAPGKERELVASISSRGGSTYYADSVKGRFTISRDNAKNTVYLQMNSLKPDDTAVYYCAAVARARARTPWLGRGYWGQVTQVTVSS” reads “high polyreactivity”.
As for “QVQLVESAGGLVQAGGSLRLSCAASGSTFYAYALGWYRQAPGKERELVAAISSDGTNYADSVKGRFTISRDNAKNTVYLQMNSLKPEDTSVYYCDADLLLYSSQDNDYWGQGTQVPVSS”, the entry is “low polyreactivity”; as for “QVQLVESAGGLVQAGGSLRLSCAASGSTLHYYAMGRYRQAPGKERELVAGISGSGGSTYYADSVKGRFTISRDNAKNTVYLQMNSLKPEDTAVYYCAADAYVSSQPMDYWGQGTQVTVSS”, “high polyreactivity”.
“QVQLVESAGGLVQAGGSLRLSCAASGSTLYGYVMGWYRQAPGKERELVAAITWSSGYTYYADSVKGRFTISRDNAKITVYLQMNILKPVDTAVYYCAVRDRSPYGYYYWGQGTQVTVSS”: the “polyreactivity (PSR sort gate)” value is listed as “low polyreactivity”.
Turning to “QVQLVESAGGLVQAGGSLRLSCAPSGFTFALYAMRWYRQAPGNERELVAANTRSGRTKYADSVKGRFTISRDNAKNTVYLQMNSLKPEDTAVYYCAALFRYYVTTRFNYWGQGTQVTVSS”, the “polyreactivity (PSR sort gate)” value is given as “high polyreactivity”.
The result for “QVQLVESAGGLVQAGGSLRLSCDASGRILKYYDIGWYRQAPGKEWELVAAISVSGTSTYYADSVKGRFTISRDNAKNTVYLQMNSLKPEDTAVYYCATATGRYSFDYWGQGTQVTVSS” reads “low polyreactivity”; that for “QVQLVESAGGLVQAGGSLRLSCDASGRTFRYYVMGWYRQAPGNERELVAAISWSGCRTNYADSVKGRYTISGDNAKNTVYLQMNSLKPEDSAVYYCNAPRPALRRYDYWGQGTQVTVSS”, “high polyreactivity”.
On to “QVQLVESAGGLVQAGGSLRLSCPASGSIFQPYAMGWYRQAPGKERELVAAINGRGGSTHYADSVKGRFTISRDNAKNTVYLQMNSLKPEDTAVYYCAARYYRDYRWYTYAYDYWGQGTQVTVSS”, for which the “polyreactivity (PSR sort gate)” value is given as “high polyreactivity”.
For the sequence “QVQLVESAGGLVQAGGSLRLSSAASGRIFLYYAMGWYRQAPGKEREFVAAITYIGGSTYYADSVKGRFTISRDNAKNTVYLQMNSLKPEDTAVYWGEGTQVTVSS”, the “polyreactivity (PSR sort gate)” value is given as “low polyreactivity”.
Take “QVQLVESAGGLVQAGGSLSISCAASGLTLTRNAMGWYRQAPGKERELVAAISGRGGSTYYADSVKGRFTISRDNAKNTVYLQMNSLKPEDTAVYYCAATVQYSPIYDYWGQGTQVTVSS”: the “polyreactivity (PSR sort gate)” value is listed as “high polyreactivity”.
In the case of “QVQLVESAGGLVQAGGSLSLSCAASAFTYVCNRMGWNRQAPGKERELVAAITGSGSTNYADSVKGRFTISRDNAKNTVYLQMNSLKPEDTAVYYCATSDRQVKYDYWGQGTQVPVSS”, the “polyreactivity (PSR sort gate)” value is given as “low polyreactivity”.
As for “QVQLVESAGGLVQAGGSLSLSCAASGGMFTGYAMGWDRQAPGTERELVAAINTGGNTYYADSVKGRFTISRDNAKNTVYLQMNSLKPEDTAVYYCAAVYFPRSNTARRYGYWGQGTQVTVSS”, the entry is “high polyreactivity”.
As for “QVQLVESAGGLVQAGGSLSLSCAASGINFAWYVMGWYRQEPGKERELVAAITQSGGSTFYADSVKGRFTISRDNAKNTVYLQMNSLKPEDTAVYYCAAESRSTWIHSRDYWGQGTQVTVSS”, the entry is “low polyreactivity”.
As for “QVQLVESAGGLVQAGGSLSLSCAASGITFYRYVMGWYRQAPGKERELVAAISVSGGRTYYADSVKGRFTISRDNAKNTVYLQMNSLKPEDTAVYYCAARWAGSKSATVQYDYWGQGTQVTVSS”, the entry is “high polyreactivity”; as for “QVQLVESAGGLVQAGGSLSLSCAASGTFYLYARGWYRQAPGKQRELVAAISGSGSTNYADSVKGRFTISRDNAKNTVYLQMNSLKPEDTAVYYCAAYQRYDSVTGARYEYDYWGQGTQVTVSS”, “low polyreactivity”.
In the case of “QVQLVESAGGLVQAGGTLRLSCAASGRIIYRYGMGWYRQAPGKERELVASITRGGSTYYADSVKGRFTISRDNAKNTVYLQMNSLKPEDTAVYYCATKSSAGYDYWGQGTQVTVSS”, the “polyreactivity (PSR sort gate)” value is on record as “low polyreactivity”.
For the sequence “QVQLVESAGGLVQAGGTLRLSCAASGSIFQFYAMGWYRHAPGKERELVAVITTSGVSTYYADSVKGRFTISRDNAKNTVYLQMNSLKPEDTGVYYCAARQWTSASYDYWGQGSQVTVSS”, the “polyreactivity (PSR sort gate)” value is given as “low polyreactivity”.
As for “QVQLVESAGGLVQAGVSLRLSCAASGLTFVQYAMGWYIQAPGKERELVAAISRSGGSTYYADSVKGRFTISRDNAKNTVYLQMNSMKPEDTAVYYCNAVIWLTSSEYWGQGTQVTVSS”, the entry is “high polyreactivity”; as for “QVQLVESAGGLVQEGGSLRLSCAASGRTFYNAMGGYRQAPGKERELVAAISANGGSTTYADSVKGRFTISRDNAKNTVYLQMNSLKPEDTAVYYCNTYYWYSGSPYDYWGQGTQVTVSS”, “low polyreactivity”; as for “QVQLVESAGGLVQEGGSLRLSCAASGSTFPYYAMGWYRQAPGKERELVAAISQNGGSTYYADSVKGRFTISRDNAMNTVYLQMNRLKPEDTAVYYCNADGVGGEYRLSGYAYWGQGTQVTVSS”, “low polyreactivity”.
As for “QVQLVESAGGVVQAGGSLRLSCAASGRIFGYNTMGWYRQAPGKERELVAAISGSGASTYYADSVKGRFTISRDNAKNTVYLQMNSLKAEDTAVYYCAAKAYYSTSPYHREHDSWGQGTQVTVSS”, the entry is “low polyreactivity”.
As for “QVQLVESAGVLVQAGGSLRFSCAPSGIIFPQYAMGWYRQAPGKARELVAAITYSGDGTYYADSVKGRFTISRDNAKYTVYLLMYSLKPDDTAVYYCAAFPRDPYKEYDYWGQGTQLTVSS”, the “polyreactivity (PSR sort gate)” value was “low polyreactivity”.
The result for “QVQLVESAGYLVQAAASLRLSCAASGLIFVYYALGWYRQAPGKERELVAFITSVGSTYYGDSVKGRFTISRDNAKYTVYLQMNSVNPEDTAVYYCAAEWEFYGFDYWGQGTQVTVSA” reads “low polyreactivity”.
The result for “QVQLVESAVGLVQAGGSLRLSSAASGFTFLNYAMGSYRQAPGKVRELVAAITWSGGNTYYADSVMGRFTISRDNAKNTVYLQMNSLKPEDTAVYYCAADYRARGKFYWGQGTQVTVSS” reads “high polyreactivity”; that for “QVQLVESAVGLVQAGVSLRLSSAASGFIYYAYALGWYRQAPGKERELVAGISDSGASTYADSVKGRFTISRDNAKNTVYLQMNSLKPEDTAVYYCATTGYLSTKDYDEYGYWGQGTQVTVSS”, “low polyreactivity”.
